Reference: patent publication US7288251 (ABGENIX, dated 2007)

T1: rat CD40 on blood cells (rat, UniProt A6JXD6 20-289)
T1 construct: also called rat blood
T1 sequence: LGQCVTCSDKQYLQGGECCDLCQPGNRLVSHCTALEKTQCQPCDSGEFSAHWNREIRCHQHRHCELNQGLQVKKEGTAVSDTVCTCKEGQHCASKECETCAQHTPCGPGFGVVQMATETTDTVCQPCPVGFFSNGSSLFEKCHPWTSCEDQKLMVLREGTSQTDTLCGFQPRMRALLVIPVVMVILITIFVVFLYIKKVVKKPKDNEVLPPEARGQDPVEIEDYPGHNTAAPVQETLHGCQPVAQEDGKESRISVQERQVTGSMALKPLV

T2: dog CD40 on blood cells (dog, UniProt Q7YRL5 21-274)
T2 construct: whole, on cells; also called dog blood
T2 sequence (looked up): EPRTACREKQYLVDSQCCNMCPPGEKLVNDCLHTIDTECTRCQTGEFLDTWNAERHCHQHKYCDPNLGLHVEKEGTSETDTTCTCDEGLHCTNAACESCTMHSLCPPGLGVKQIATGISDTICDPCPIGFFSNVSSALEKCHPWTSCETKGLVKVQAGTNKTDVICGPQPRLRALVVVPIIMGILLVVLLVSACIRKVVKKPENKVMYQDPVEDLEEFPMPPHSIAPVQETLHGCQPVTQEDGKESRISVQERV

B1: monoclonal antibody 23.5.1 (antibody, human IgG2, kappa, V domains shown)
VH: QVQLVESGGGVVQPGRSLRLSCVASGFTFSNYGMHWVRQAPGKGLEWVAIISYDGSNKYYADSVKGRFTISRDNSKNTLYVQMNSLRAEDTAVYYCARRGHYGRDYYSYYGLDVWGQGTTVTVSS
VL: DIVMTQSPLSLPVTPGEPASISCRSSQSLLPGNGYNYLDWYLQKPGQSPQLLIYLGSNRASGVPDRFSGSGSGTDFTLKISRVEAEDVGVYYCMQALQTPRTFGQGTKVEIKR
notes: also called hybridoma 23.5.1 (LN 15855), ATCC PTA-4548
B2: monoclonal antibody 22.1.1 (antibody, human IgG2, kappa, V domains shown)
VH: QVQLVESGGGVVQPGRSLRLSCAASGFTFSRYGMHWVRQAPGKGLEWVAVISSDGGNKYYADSVKGRFTISRDNSKNTLYLQMNSLRAEDTAVYYCTRRGTGKTYYHYCGMDVWGQGTTVTVSS
VL: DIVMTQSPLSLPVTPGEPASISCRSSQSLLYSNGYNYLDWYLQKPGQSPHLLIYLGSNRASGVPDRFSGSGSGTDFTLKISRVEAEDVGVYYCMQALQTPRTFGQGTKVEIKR
notes: Human IgG2 kappa from hybridoma; also called hybridoma 22.1.1 (LN 15875), ATCC PTA-4550
B3: monoclonal antibody 3.1.1 (antibody, human IgG2, kappa, V domains shown)
VH: QVQLVESGGGVVQPGRSLRLSCAASGFTFSSYGMHWVRQAPGKGLEWVAVISKDGGNKYHADSVKGRFTISRDNSKNALYLQMNSLRVEDTAVYYCVRRGHQLVLGYYYYNGLDVWGQGTTVTVSS
VL: DIVLTQSPLSLPVTPGEPASISCRSSQSLLYSNGYNFLDWYLQKPGQSPQLLIYLGSNRASGVPDRFSGSGSGTDFTLKISRLEAEDVGVYYCMQALQTPRTFGQGTKVEIKR
notes: also called mAb 3.1.1; hybridoma 3.1.1 (LN 15848), ATCC PTA-3600
B4: monoclonal antibody 21.2.1 (antibody, human IgG2, kappa, V domains shown)
VH: QVQLVESGGGVVQPGRSLRLSCAASGFTFSSYVMHWVRQAPGKGLEWVAVMSYDGSSKYYANSVKGRFTISRDNSKNTLYLQINSLRAEDTAVYYCARDGGKAVPGPDYWGQGILVTVSS
VL: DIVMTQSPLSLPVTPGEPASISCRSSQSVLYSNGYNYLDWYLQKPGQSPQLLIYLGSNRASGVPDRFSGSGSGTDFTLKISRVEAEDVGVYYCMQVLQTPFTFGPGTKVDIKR
notes: Human IgG2 kappa from hybridoma
B5: monoclonal antibody 15.1.1 (antibody, human IgG2, kappa, V domains shown)
VH: QVQLQESGPGLVKPSETLSLTCTVSGGSIRSYYWTWIRQPPGKGLEWIGYIYYSGSTNYNPSLKSRVTISVDMSKNQFSLKLSSVTAADTAVYYCARKGDYGGNFNYFHQWGQGTLVTVSS
VL: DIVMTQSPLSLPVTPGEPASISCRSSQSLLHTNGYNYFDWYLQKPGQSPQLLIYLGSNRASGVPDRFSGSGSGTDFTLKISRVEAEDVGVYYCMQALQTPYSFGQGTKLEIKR
notes: Human IgG2 kappa from hybridoma; also called hybridoma 15.1.1 (LN 15851), ATCC PTA-3603
B6: monoclonal antibody 10.8.3 (antibody, human IgG2, kappa, V domains shown)
VH: QVQLQESGPGLVKPSETLSLTCTVSGGSISSYYWIWIRQPAGKGLEWIGRVYTSGSTNYNPSLKSRVTMSVDTSKNQFSLKLSSVTAADTAVYYCARDGLYRGYGMDVWGQGTTVTVSS
VL: DIQMTQSPSSVSASVGDRVTITCRASQPISSWLAWYQQKPGKAPKLLIYSASGLQSGVPSRFSGSGSGTDFTLTISSLQPEDFATYYCQQTDSFPLTFGGGTKVEIKR
notes: as for B4

Legend:
human CD40 on cells [1] = target: T3, human CD40 on cells (human, UniProt P25942 21-277); test: cell-based or functional assay
T3 sequence (P25942 21-277): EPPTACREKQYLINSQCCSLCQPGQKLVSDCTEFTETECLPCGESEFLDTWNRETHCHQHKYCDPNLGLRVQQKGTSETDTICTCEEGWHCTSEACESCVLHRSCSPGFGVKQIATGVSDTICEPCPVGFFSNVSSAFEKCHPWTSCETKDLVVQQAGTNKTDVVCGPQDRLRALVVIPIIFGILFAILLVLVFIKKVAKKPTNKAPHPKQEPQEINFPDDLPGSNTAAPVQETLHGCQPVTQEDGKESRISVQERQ

human CD40 on cells [2] = target: T3, human CD40 on cells; test: cell-based or functional assay; remark: listed apart in the source
human CD40 on cells [3] = target: T3, human CD40 on cells; test: cell-based or functional assay; remark: listed apart in the source
TNFR-2/Ig = target: T4, TNFR-2/Ig; test: ELISA, TNFR-2/Ig coated, antibody 1 µg/ml
T4 construct: also called Tumor Necrosis Factor Receptor-2
T4 sequence (P20333 23-257): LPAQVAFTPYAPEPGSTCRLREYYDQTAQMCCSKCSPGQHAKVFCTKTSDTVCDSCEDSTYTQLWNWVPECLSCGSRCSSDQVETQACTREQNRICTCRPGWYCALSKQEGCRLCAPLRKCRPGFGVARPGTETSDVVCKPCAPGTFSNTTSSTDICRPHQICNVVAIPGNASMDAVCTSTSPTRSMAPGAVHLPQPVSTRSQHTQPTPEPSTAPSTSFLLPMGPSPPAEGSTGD
Procedure: (§1) We then washed the plate with PBST (PBS+0.1% Tween-20) three times and blocked the plate with PBST+0.5% BSA at 150 µl/well. We incubated the plate at room temperature for 1 hour and then washed with PBST three times. […] We incubated the plate at room temperature for 1 hour then washed with PBST three times. […] We incubated the plate at room temperature for 1 hour and then washed with PBST three times. […] We then read the plate using a SpectraMax™ plate reader.

RANK/Ig = test: ELISA, RANK/Ig coated, antibody 1 µg/ml
RANK/Ig, sequence (Q9Y6Q6 whole entry): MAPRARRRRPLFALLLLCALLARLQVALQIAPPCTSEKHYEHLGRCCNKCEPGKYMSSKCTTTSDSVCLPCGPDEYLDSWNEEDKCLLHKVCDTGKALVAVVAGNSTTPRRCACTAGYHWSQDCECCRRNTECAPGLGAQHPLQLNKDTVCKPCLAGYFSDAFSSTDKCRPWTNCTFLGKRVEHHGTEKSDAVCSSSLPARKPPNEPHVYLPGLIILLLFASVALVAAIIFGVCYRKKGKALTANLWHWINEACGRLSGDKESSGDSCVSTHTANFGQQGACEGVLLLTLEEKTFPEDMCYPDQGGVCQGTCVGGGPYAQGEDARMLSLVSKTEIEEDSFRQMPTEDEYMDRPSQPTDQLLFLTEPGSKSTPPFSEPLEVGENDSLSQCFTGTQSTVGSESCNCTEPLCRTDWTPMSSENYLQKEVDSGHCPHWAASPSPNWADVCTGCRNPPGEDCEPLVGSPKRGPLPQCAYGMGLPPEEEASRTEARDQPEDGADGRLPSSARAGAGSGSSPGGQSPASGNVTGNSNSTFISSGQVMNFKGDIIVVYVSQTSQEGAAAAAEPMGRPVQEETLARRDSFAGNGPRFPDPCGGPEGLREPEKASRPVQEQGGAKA
Procedure: as §1

rat CD40 on blood cells = target: T1, rat CD40 on blood cells; test: FACS, whole blood
dog CD40 on blood cells = target: T2, dog CD40 on blood cells; test: FACS, whole blood
[4] = target: T5, mouse CD40 on blood cells (mouse, UniProt P27512 20-289); test: FACS, whole blood
T5 construct: whole, on cells; also called mouse blood
T5 sequence (P27512 20-289): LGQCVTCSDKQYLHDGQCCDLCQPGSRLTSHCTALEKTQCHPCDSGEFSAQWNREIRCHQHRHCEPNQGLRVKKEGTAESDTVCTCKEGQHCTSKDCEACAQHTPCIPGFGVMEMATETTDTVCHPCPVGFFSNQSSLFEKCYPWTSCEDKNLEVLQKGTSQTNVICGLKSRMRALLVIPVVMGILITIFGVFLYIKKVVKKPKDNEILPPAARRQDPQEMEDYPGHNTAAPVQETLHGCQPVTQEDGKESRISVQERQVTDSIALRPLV

human CD40 on cells [5] = target: T3, human CD40 on cells; test: cell-based or functional assay; remark: listed apart in the source
4-1BB/Ig = target: T6, 4-1BB/Ig; test: ELISA, 4-1BB/Ig coated, antibody 1 µg/ml
T6 construct: also called CD137
Procedure: as §1

TNFR-1/Ig = target: T7, TNFR-1/Ig; test: ELISA, TNFR-1/Ig coated, antibody 1 µg/ml
T7 construct: also called Tumor Necrosis Factor Receptor-1
T7 sequence (P19438 whole entry): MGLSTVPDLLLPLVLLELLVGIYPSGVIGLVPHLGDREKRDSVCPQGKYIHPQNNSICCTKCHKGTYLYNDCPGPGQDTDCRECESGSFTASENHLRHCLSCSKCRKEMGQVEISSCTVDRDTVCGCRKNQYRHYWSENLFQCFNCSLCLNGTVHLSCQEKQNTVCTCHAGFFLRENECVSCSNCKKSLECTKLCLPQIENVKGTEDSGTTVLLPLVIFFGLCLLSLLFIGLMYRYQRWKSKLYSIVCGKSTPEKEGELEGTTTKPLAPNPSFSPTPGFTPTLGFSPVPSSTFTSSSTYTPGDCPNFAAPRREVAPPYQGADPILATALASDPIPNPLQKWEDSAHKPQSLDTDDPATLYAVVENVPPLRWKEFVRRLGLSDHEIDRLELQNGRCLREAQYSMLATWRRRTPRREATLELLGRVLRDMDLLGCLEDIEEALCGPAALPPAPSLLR
Procedure: as §1

[6] = target: T8, human CD40-IgG1 Fc fusion protein (human, UniProt P25942 21-193); test: SPR BIAcore 3000, CD40-Ig immobilised, antibody injected
T8 construct: extracellular domain; also called CD40-Ig fusion protein; CD40-IgG fusion protein; not shown: human IgG1 Fc
T8 sequence (P25942 21-193): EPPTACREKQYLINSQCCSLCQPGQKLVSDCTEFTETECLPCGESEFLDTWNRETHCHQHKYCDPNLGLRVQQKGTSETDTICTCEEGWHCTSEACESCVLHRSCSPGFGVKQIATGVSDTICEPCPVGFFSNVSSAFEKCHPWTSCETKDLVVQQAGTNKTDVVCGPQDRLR

| Binder | DC IL-12p70 secretion with LPS, EC50 (human CD40 on cells [1]) | DC B7-1 (CD80), fold increase in median intensity at 1 µg/ml, 72 h (human CD40 on cells [2]) | DC B7-2 (CD86), fold increase in median intensity at 1 µg/ml, 72 h (human CD40 on cells [2]) | DC CD83, fold increase in median intensity at 1 µg/ml, 72 h (human CD40 on cells [2]) | DC ICAM (CD54), fold increase in median intensity at 1 µg/ml, 72 h (human CD40 on cells [2]) | DC MHC Class II, fold increase in median intensity at 1 µg/ml, 72 h (human CD40 on cells [2]) | Allo DC/T IFNγ secretion, EC50 (human CD40 on cells [3]) | CD40 specific signal over the signal for this molecule (TNFR-2/Ig) | CD40 specific signal over the signal for this molecule (RANK/Ig) | binding result (rat CD40 on blood cells) | binding result (dog CD40 on blood cells) | binding result [4] | B cell B7-1 (CD80), fold increase in median intensity at 1 µg/ml (human CD40 on cells [5]) | B cell B7-2 (CD86), fold increase in median intensity at 1 µg/ml (human CD40 on cells [5]) | B cell CD23, fold increase in median intensity at 1 µg/ml (human CD40 on cells [5]) | B cell ICAM (CD54), fold increase in median intensity at 1 µg/ml (human CD40 on cells [5]) | B cell MHC Class II, fold increase in median intensity at 1 µg/ml (human CD40 on cells [5]) | CD40 specific signal over the signal for this molecule (4-1BB/Ig) | CD40 specific signal over the signal for this molecule (TNFR-1/Ig) | Kd [6] | other results |
| --- | --- | --- | --- | --- | --- | --- | --- | --- | --- | --- | --- | --- | --- | --- | --- | --- | --- | --- | --- | --- | --- |
| B1 | 0.1 µg/mL | 1.1 fold | 10.7 fold | 9.2 fold | 1.2 fold | 2.3 fold | 0.2 µg/mL | ≥ 100 fold | ≥ 100 fold | no binding | no binding | no binding | 1.4 fold | 1 fold | 1.1 fold | 1.1 fold | 1.4 fold | ≥ 100 fold | ≥ 100 fold |  |  |
| B2 | 0.1 µg/mL | 1.4 fold | 16.3 fold | 12 fold | 1.6 fold | 2.3 fold | 0.3 µg/mL | ≥ 100 fold | ≥ 100 fold | no binding | no binding | no binding | 1.2 fold | 1 fold | 1.3 fold | 1.1 fold | 1.4 fold | ≥ 100 fold | ≥ 100 fold | 0.279 nM | koff [6]: 0.000155 s⁻¹; kon [6]: 955000 M⁻¹ s⁻¹ |
| B3 | 0.2 µg/mL | 1.8 fold | 23.7 fold | 15.2 fold | 1.5 fold | 4.4 fold | 0.1 µg/mL | ≥ 100 fold | ≥ 100 fold | no binding | no binding | no binding | 1.7 fold | 1.2 fold | 5.6 fold | 1.3 fold | 3.2 fold | ≥ 100 fold | ≥ 100 fold | 0.0395 nM | koff [6]: 3.31e-05 s⁻¹; kon [6]: 1.12e+06 M⁻¹ s⁻¹ |
| B4 | 0.03 µg/mL | 0.9 fold | 7.4 fold | 10.8 fold | 1.5 fold | 1.8 fold | 0.03 µg/mL | ≥ 100 fold | ≥ 100 fold | no binding | no binding | no binding | 0.9 fold | 1 fold | 1 fold | 1.3 fold | 1.2 fold | ≥ 100 fold | ≥ 100 fold |  |  |
| B5 |  |  |  |  |  |  |  | ≥ 100 fold | ≥ 100 fold | no binding | no binding | no binding |  |  |  |  |  | ≥ 100 fold | ≥ 100 fold | 0.00405 nM | koff [6]: 2.83e-07 s⁻¹; kon [6]: 83000 M⁻¹ s⁻¹ |
| B6 |  |  |  |  |  |  |  | ≥ 100 fold | ≥ 100 fold | no binding | no binding | no binding |  |  |  |  |  | ≥ 100 fold | ≥ 100 fold | 0.00223 nM | koff [6]: 4.48e-07 s⁻¹; kon [6]: 222000 M⁻¹ s⁻¹ |
